Test results reported in publication PMC10397247.

Legend:
4H3378-AA = biological target: T1, 4H3378-AA; assay: two-hybrid library CCmax; settings: mean of both orientations;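 note: natural log of median RNA to DNA barcode read ratio; higher means stronger binding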
T1 chain: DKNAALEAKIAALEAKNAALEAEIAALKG

4H340-AA = biological target: T2, 4H340-AA; assay: two-hybrid library CCmax; settings: mean of both orientations;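 note: natural log of median RNA to DNA barcode read ratio; higher means stronger binding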
T2 chain: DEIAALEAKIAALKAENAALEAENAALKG

4H384-AA = biological target: T3, 4H384-AA; assay: two-hybrid library CCmax; settings: mean of both orientations;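 note: natural log of median RNA to DNA barcode read ratio; higher means stronger binding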
T3 chain: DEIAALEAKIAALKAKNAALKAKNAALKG

4H3697-AA = biological target: T4, 4H3697-AA; assay: two-hybrid library CCmax; settings: mean of both orientations;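 note: natural log of median RNA to DNA barcode read ratio; higher means stronger binding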
T4 chain: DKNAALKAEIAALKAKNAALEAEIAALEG

4H3162-AA = biological target: T5, 4H3162-AA; assay: two-hybrid library CCmax;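 note: natural log of median RNA to DNA barcode read ratio; higher means stronger binding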
T5 chain: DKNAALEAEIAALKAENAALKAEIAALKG

4H3588-AA = biological target: T6, 4H3588-AA; assay: two-hybrid library CCmax; settings: mean of both orientations;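 note: natural log of median RNA to DNA barcode read ratio; higher means stronger binding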
T6 chain: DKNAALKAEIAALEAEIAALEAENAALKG

4H3631-AA = biological target: T7, 4H3631-AA; assay: two-hybrid library CCmax; settings: mean of both orientations
T7 chain: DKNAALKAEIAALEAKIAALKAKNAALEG

4H3413-AA = biological target: T8, 4H3413-AA; assay: two-hybrid library CCmax; settings: mean of both orientations
T8 chain: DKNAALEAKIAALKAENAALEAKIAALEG

4H982-AA = biological target: T9, 4H982-AA; assay: two-hybrid library CCmax; settings: mean of both orientations
T9 chain: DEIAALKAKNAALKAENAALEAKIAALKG

4H697-AA = biological target: T10, 4H697-AA; assay: two-hybrid library CCmax; settings: mean of both orientations
T10 chain: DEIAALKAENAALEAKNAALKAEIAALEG

4H3865-AA = biological target: T11, 4H3865-AA; assay: two-hybrid library CCmax; settings: mean of both orientations
T11 chain: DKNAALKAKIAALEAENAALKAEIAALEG

4H3606-AA = biological target: T12, 4H3606-AA; assay: two-hybrid library CCmax; settings: mean of both orientations
T12 chain: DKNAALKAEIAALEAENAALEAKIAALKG

4H3718-AA = biological target: T13, 4H3718-AA; assay: two-hybrid library CCmax; settings: mean of both orientations
T13 chain: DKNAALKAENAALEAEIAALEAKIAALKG

4H32-AA = biological target: T14, 4H32-AA; assay: two-hybrid library CCmax; settings: mean of both orientations
T14 chain: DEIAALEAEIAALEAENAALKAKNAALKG

4H908-bH = biological target: T15, 4H908-bH; assay: two-hybrid library CCNG1
T15 chain: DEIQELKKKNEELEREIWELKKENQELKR

4H883-bH = biological target: T16, 4H883-bH; assay: two-hybrid library CCNG1
T16 chain: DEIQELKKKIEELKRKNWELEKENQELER

4H780-bH = biological target: T17, 4H780-bH; assay: two-hybrid library CCNG1
T17 chain: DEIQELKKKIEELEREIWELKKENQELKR

4H967-bH = biological target: T18, 4H967-bH; assay: two-hybrid library CCNG1
T18 chain: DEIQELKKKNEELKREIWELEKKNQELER

4H968-bH = biological target: T19, 4H968-bH; assay: two-hybrid library CCNG1
T19 chain: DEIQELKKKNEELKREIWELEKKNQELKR

4H855-bH = biological target: T20, 4H855-bH; assay: two-hybrid library CCNG1
T20 chain: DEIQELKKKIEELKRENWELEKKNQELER

4H918-bH = biological target: T21, 4H918-bH; assay: two-hybrid library CCNG1
T21 chain: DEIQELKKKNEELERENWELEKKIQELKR

4H953-bH = biological target: T22, 4H953-bH; assay: two-hybrid library CCNG1
T22 chain: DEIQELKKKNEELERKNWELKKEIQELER

4H797-bH = biological target: T23, 4H797-bH; assay: two-hybrid library CCNG1
T23 chain: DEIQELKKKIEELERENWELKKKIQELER

4H754-bH = biological target: T24, 4H754-bH; assay: two-hybrid library CCNG1
T24 chain: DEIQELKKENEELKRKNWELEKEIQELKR

4H2698-AA = biological target: T25, 4H2698-AA; assay: two-hybrid library CCmax; settings: mean of both orientations
T25 chain: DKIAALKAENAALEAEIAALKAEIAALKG

4H3590-AA = biological target: T26, 4H3590-AA; assay: two-hybrid library CCmax; settings: mean of both orientations
T26 chain: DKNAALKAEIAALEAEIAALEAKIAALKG

4H891-AA = biological target: T27, 4H891-AA; assay: two-hybrid library CCmax; settings: mean of both orientations
T27 chain: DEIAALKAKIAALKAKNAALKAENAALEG

4H745-AA = biological target: T28, 4H745-AA; assay: two-hybrid library CCmax; settings: mean of both orientations
T28 chain: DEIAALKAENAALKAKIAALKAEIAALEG

4H3395-AA = biological target: T29, 4H3395-AA; assay: two-hybrid library CCmax; settings: mean of both orientations
T29 chain: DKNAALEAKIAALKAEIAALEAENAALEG

4H930-AA = biological target: T30, 4H930-AA; assay: two-hybrid library CCmax; settings: mean of both orientations
T30 chain: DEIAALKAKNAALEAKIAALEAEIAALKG

4H3120-AA = biological target: T31, 4H3120-AA; assay: two-hybrid library CCmax; settings: mean of both orientations
T31 chain: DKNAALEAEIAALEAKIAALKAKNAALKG

4H3130-AA = biological target: T32, 4H3130-AA; assay: two-hybrid library CCmax; settings: mean of both orientations
T32 chain: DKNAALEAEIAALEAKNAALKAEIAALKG

4H458-AA = biological target: T33, 4H458-AA; assay: two-hybrid library CCmax; settings: mean of both orientations
T33 chain: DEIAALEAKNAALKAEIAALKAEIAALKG

4H3381-AA = biological target: T34, 4H3381-AA; assay: two-hybrid library CCmax; settings: mean of both orientations
T34 chain: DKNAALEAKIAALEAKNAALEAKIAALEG

4H850-AA = biological target: T35, 4H850-AA; assay: two-hybrid library CCmax; settings: mean of both orientations
T35 chain: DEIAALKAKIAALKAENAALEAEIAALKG

4H310-AA = biological target: T36, 4H310-AA; assay: two-hybrid library CCmax; settings: mean of both orientations
T36 chain: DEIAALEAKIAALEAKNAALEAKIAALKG

4H94-AA = biological target: T37, 4H94-AA; assay: two-hybrid library CCmax; settings: mean of both orientations
T37 chain: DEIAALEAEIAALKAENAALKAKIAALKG

4H2725-AA = biological target: T38, 4H2725-AA; assay: two-hybrid library CCmax; settings: mean of both orientations
T38 chain: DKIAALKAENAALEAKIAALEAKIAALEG

4H3753-AA = biological target: T39, 4H3753-AA; assay: two-hybrid library CCmax; settings: mean of both orientations
T39 chain: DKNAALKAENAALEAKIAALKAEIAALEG

4H3165-AA = biological target: T40, 4H3165-AA; assay: two-hybrid library CCmax; settings: mean of both orientations
T40 chain: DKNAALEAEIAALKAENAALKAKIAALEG

4H3410-AA = biological target: T41, 4H3410-AA; assay: two-hybrid library CCmax; settings: mean of both orientations
T41 chain: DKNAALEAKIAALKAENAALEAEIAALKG

4H485-AA = biological target: T42, 4H485-AA; assay: two-hybrid library CCmax; settings: mean of both orientations
T42 chain: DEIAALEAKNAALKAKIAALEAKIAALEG

4H797-AA = biological target: T43, 4H797-AA; assay: two-hybrid library CCmax; settings: mean of both orientations
T43 chain: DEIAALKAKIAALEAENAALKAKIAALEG

4H2865-AA = biological target: T44, 4H2865-AA; assay: two-hybrid library CCmax; settings: mean of both orientations
T44 chain: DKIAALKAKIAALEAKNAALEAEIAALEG

4H909-AA = biological target: T45, 4H909-AA; assay: two-hybrid library CCmax; settings: mean of both orientations
T45 chain: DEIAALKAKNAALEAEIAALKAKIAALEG

4H3009-AA = biological target: T46, 4H3009-AA; assay: two-hybrid library CCmax; settings: mean of both orientations
T46 chain: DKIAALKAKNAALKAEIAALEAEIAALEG

4H629-AA = biological target: T47, 4H629-AA; assay: two-hybrid library CCmax; settings: mean of both orientations
T47 chain: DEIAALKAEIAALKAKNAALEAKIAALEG

4H710-AA = biological target: T48, 4H710-AA; assay: two-hybrid library CCmax; settings: mean of both orientations
T48 chain: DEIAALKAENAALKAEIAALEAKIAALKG

4H3016-AA = biological target: T49, 4H3016-AA; assay: two-hybrid library CCmax; settings: mean of both orientations
T49 chain: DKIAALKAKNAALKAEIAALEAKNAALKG

4H570-AA = biological target: T50, 4H570-AA; assay: two-hybrid library CCmax; settings: mean of both orientations
T50 chain: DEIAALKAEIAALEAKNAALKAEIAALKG

4H2649-AA = biological target: T51, 4H2649-AA; assay: two-hybrid library CCmax
T51 chain: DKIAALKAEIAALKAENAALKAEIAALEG

4H536-AA = biological target: T52, 4H536-AA; assay: two-hybrid library CCmax; settings: mean of both orientations
T52 chain: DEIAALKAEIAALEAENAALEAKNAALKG

DKNAALEAEIAALKAENAALKAEIAALKG [4H3162-AA] was tested, and the interaction score (4H3378-AA) was -1.59, the interaction score (4H340-AA) was -1.4 and the interaction score (4H384-AA) was -1.58. The interaction score (4H3697-AA) was -1.2, the interaction score (4H3162-AA) was 0.942 and the interaction score (4H3588-AA) was -1.53. For the same binder, the interaction score (4H3631-AA) was -1.62, the interaction score (4H3413-AA) was -1.04 and the interaction score (4H982-AA) was -1.88. It also gave an interaction score (4H697-AA) of -1.39, an interaction score (4H3865-AA) of -0.607 and an interaction score (4H3606-AA) of -0.0579. The interaction score (4H3718-AA) was -1.43 and the interaction score (4H32-AA) was -1.53.

DEIQELKKENEELKRKNWELEKEIQELKR [4H754-bH] gave an interaction score (4H908-bH) of 0.329, an interaction score (4H883-bH) of -0.29 and an interaction score (4H780-bH) of -0.00466. The interaction score (4H967-bH) was -0.713, the interaction score (4H968-bH) was -0.182 and the interaction score (4H855-bH) was -0.362. The interaction score (4H918-bH) was 0.604, the interaction score (4H953-bH) was 0.539 and the interaction score (4H797-bH) was -0.0415. For the same binder, the interaction score (4H754-bH) was 1.36.

Binder DKIAALKAEIAALKAENAALKAEIAALEG [4H2649-AA] has an interaction score (4H2698-AA) of -1.14, an interaction score (4H3590-AA) of -0.789 and an interaction score (4H891-AA) of -1.86. For the same binder, the interaction score (4H3697-AA) was -1.81, the interaction score (4H745-AA) was -0.16 and the interaction score (4H3395-AA) was -1.27. It also gave an interaction score (4H930-AA) of -0.569, an interaction score (4H3120-AA) of -1.41 and an interaction score (4H3130-AA) of -0.528. For the same binder, the interaction score (4H458-AA) was -1.33, the interaction score (4H3381-AA) was -1.34 and the interaction score (4H850-AA) was 1.99. For the same binder, the interaction score (4H310-AA) was -0.563, the interaction score (4H94-AA) was 2.21 and the interaction score (4H2725-AA) was 0.985. It also gave an interaction score (4H3865-AA) of -1.59, an interaction score (4H3753-AA) of -1.64 and an interaction score (4H3165-AA) of 1.07. It also gave an interaction score (4H3410-AA) of -0.287, an interaction score (4H485-AA) of -1.19 and an interaction score (4H797-AA) of 0.345. For the same binder, the interaction score (4H2865-AA) was -1.38, the interaction score (4H909-AA) was -1.6 and the interaction score (4H3009-AA) was -0.366. For the same binder, the interaction score (4H629-AA) was -0.681, the interaction score (4H710-AA) was -1.42 and the interaction score (4H3016-AA) was -1.64. For the same binder, the interaction score (4H570-AA) was 1.86, the interaction score (4H2649-AA) was 0.376 and the interaction score (4H536-AA) was 0.807.
